Here are results for 24 substances from patent publication US20050118674A1, “Engineering of Controlled Deamidation Rates in Peptides, Proteins, and Similar Structures” (priority 2003, published 2005).

This data set in a line: First-order nonenzymatic deamidation of pentapeptides in Tris buffer. It counts as physicochemical. The following applies: 0.15 M Tris HCl; for First-Order Deamidation Halftimes of GlyXxxAsnYyyGly: pH 7.4, 37.0° C., Asn pentapeptides; for First-Order Deamidation Halftimes of GlyXxxGlnYyyGly: pH 7.4, 37.0 ° C., Gln pentapeptides, 52 values measured, rest derived from surface fitting. In a few lines: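 Pentapeptides containing Asn or Gln in varied flanking sequences incubated at 37° C., pH 7.4, 0.15 M Tris buffer; first-order deamidation rates measured. Some Asn values estimated from remaining data; many Gln values derived from surface fitting rather than measured.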

In the case of “GlyValAsnProGly (GVNPG; printed: GlyValAsnProGly)”, the “First-Order Deamidation Halftimes of GlyXxxAsnYyyGly” value is 8030 days.

“GlyValAsnSerGly (GVNSG; printed: GlyValAsnSerGly)”: the “First-Order Deamidation Halftimes of GlyXxxAsnYyyGly” value was determined as 18.2 days.

“GlyValAsnThrGly (GVNTG; printed: GlyValAsnThrGly)”: the “First-Order Deamidation Halftimes of GlyXxxAsnYyyGly” value is 49.9 days.

Take “GlyValAsnTrpGly (GVNWG; printed: GlyValAsnTrpGly)”: the “First-Order Deamidation Halftimes of GlyXxxAsnYyyGly” value turned out to be 88.9 days.

For the substance “GlyValAsnTyrGly (GVNYG; printed: GlyValAsnTyrGly)”, the “First-Order Deamidation Halftimes of GlyXxxAsnYyyGly” value worked out at 79.2 days.

As for “GlyValAsnValGly (GVNVG; printed: GlyValAsnValGly)”, the “First-Order Deamidation Halftimes of GlyXxxAsnYyyGly” value came out at 291 days.

Take “GlyValGlnAlaGly (GVQAG; printed: GlyValGlnAlaGly)”: the “First-Order Deamidation Halftimes of GlyXxxGlnYyyGly” value was found to be 4500 days.

As for “GlyValGlnArgGly (GVQRG; printed: GlyValGlnArgGly)”, the “First-Order Deamidation Halftimes of GlyXxxGlnYyyGly” value is on record as 6100 days.

Take “GlyValGlnAspGly (GVQDG; printed: GlyValGlnAspGly)”: the “First-Order Deamidation Halftimes of GlyXxxGlnYyyGly” value is reported as 7000 days.

On to “GlyValGlnCysGly (GVQCG; printed: GlyValGlnCysGly)”, for which the “First-Order Deamidation Halftimes of GlyXxxGlnYyyGly” value was 1300 days.

As for “GlyValGlnGluGly (GVQEG; printed: GlyValGlnGluGly)”, the “First-Order Deamidation Halftimes of GlyXxxGlnYyyGly” value came out at 6500 days.

On to “GlyValGlnGlyGly (GVQGG; printed: GlyValGlnGlyGly)”, for which the “First-Order Deamidation Halftimes of GlyXxxGlnYyyGly” value stood at 640 days.

Consider “GlyValGlnHisGly (GVQHG; printed: GlyValGlnHisGly)”, for which the “First-Order Deamidation Halftimes of GlyXxxGlnYyyGly” value is reported as 5000 days.

In the case of “GlyValGlnIleGly (GVQIG; printed: GlyValGlnIleGly)”, the “First-Order Deamidation Halftimes of GlyXxxGlnYyyGly” value was found to be 5600 days.

As for “GlyValGlnLeuGly (GVQLG; printed: GlyValGlnLeuGly)”, the “First-Order Deamidation Halftimes of GlyXxxGlnYyyGly” value is given as 5500 days.

As for “GlyValGlnLysGly (GVQKG; printed: GlyValGlnLysGly)”, the “First-Order Deamidation Halftimes of GlyXxxGlnYyyGly” value is recorded as 5200 days.

For “GlyValGlnMetGly (GVQMG; printed: GlyValGlnMetGly)”, the “First-Order Deamidation Halftimes of GlyXxxGlnYyyGly” value is 4200 days.

On to “GlyValGlnPheGly (GVQFG; printed: GlyValGlnPheGly)”, for which the “First-Order Deamidation Halftimes of GlyXxxGlnYyyGly” value turned out to be 7200 days.

As for “GlyValGlnProGly (GVQPG; printed: GlyValGlnProGly)”, the “First-Order Deamidation Halftimes of GlyXxxGlnYyyGly” value came out at 8500 days.

Consider “GlyValGlnSerGly (GVQSG; printed: GlyValGlnSerGly)”, for which the “First-Order Deamidation Halftimes of GlyXxxGlnYyyGly” value was 4400 days.

“GlyValGlnThrGly (GVQTG; printed: GlyValGlnThrGly)”: the “First-Order Deamidation Halftimes of GlyXxxGlnYyyGly” value stood at 4300 days.

On to “GlyValGlnTrpGly (GVQWG; printed: GlyValGlnTrpGly)”, for which the “First-Order Deamidation Halftimes of GlyXxxGlnYyyGly” value is listed as 12000 days.

Turning to “GlyValGlnTyrGly (GVQYG; printed: GlyValGlnTyrGly)”, the “First-Order Deamidation Halftimes of GlyXxxGlnYyyGly” value came out at 9700 days.

For the substance “GlyValGlnValGly (GVQVG; printed: GlyValGlnValGly)”, the “First-Order Deamidation Halftimes of GlyXxxGlnYyyGly” value came to 5900 days.
